Experimental data taken from article PMC5642495, “Characterization of a novel androgen receptor (AR) coregulator RIPK1 and related chemicals that suppress AR-mediated prostate cancer growth via peptide and chemical screening” (Oncotarget, 2017).
Where a chain is given by its changes, count along the chain named. Ends that are not written are not given here.

Experiments:
[1] = target: T1, wt-AR (Homo sapiens, UniProt P10275); experiment: mammalian two-hybrid (MM2H) assay, peptide interaction with wt-AR; format: cell-based; conditions: PC-3 cells, Gal-4 = 1; for wt-AR DHT, peptide-AR interaction in MM2H assay: DHT = 10 nM
T1 construct: expressed in transfected cells; host or cells: PC-3
T1 sequence (P10275 1-920): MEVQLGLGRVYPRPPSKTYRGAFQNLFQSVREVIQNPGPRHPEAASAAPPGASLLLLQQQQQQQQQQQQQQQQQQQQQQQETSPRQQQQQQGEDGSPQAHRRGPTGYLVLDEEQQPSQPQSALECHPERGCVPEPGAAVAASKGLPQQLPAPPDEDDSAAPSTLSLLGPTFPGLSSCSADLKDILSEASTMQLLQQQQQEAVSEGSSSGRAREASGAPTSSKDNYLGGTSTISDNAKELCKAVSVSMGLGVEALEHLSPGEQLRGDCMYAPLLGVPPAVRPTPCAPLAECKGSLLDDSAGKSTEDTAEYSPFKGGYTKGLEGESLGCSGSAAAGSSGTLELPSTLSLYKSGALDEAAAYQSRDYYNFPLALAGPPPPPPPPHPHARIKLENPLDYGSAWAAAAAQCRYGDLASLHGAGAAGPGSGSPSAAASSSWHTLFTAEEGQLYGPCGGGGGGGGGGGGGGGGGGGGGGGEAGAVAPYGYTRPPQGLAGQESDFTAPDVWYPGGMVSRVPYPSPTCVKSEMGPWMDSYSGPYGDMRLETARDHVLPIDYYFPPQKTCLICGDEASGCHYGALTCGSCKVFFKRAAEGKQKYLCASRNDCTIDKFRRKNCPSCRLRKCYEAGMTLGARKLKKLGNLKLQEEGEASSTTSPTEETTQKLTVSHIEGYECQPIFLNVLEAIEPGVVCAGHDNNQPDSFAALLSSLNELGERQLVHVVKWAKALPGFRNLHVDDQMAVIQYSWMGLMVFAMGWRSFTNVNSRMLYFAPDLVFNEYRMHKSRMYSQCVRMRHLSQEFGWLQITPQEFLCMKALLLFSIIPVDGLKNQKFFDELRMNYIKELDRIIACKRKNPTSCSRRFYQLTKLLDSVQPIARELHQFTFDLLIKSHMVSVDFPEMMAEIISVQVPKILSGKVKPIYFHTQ
Source text: (§1) Using the phage display technique, we observed enrichment of FxxFY motif-containing peptides in CDX-W741L AR LBD screening. Peptide-AR interactions were further validated with the mammalian two-hybrid assay. […] The majority of these peptides additionally interacted with W741L-AR in the presence of bicalutamide. Protein database searches led to the identification of receptor-interacting protein kinase-1 (RIPK1) as a FxxFY motif-containing protein (^285FRPFY^289). RIPK1 is a kinase that plays a crucial role in inflammation and cell death. We hypothesized that RIPK1 is an AR-interacting candidate protein and the FxxFY motif is involved in mediating interactions with AR. To examine this theory, we tested the short FxxFY-containing peptide in a mammalian two-hybrid assay. […] In interacting domain mapping, the FxxFY motif of RIPK1 influenced binding to AR in the GST pull-down assay, mediating AR interactions predominantly through DBD-LBD, as depicted in Figure 1B. […] RIPK1 contains an amino-terminal kinase domain, an intermediate domain and a carboxy-terminal death domain [17]. […] We further examined tissue expression of RIPK1 in the prostate gland via immunohistochemical staining. As shown in Figure 1E and 1F, RIPK1 was enriched in benign prostate hyperplasia and non-tumor areas, but not the tumor area. In view of the collective data, we propose that RIPK1 is a bona fide AR coregulator.
(§2) The assay procedures were performed as described previously. The PC-3 cell line was used for the mammalian two-hybrid and reporter gene assays.

[2] = target: T2, W741L-AR (Homo sapiens, UniProt P10275, W742L); experiment: mammalian two-hybrid (MM2H) assay, peptide interaction with W741L-AR; format: cell-based; conditions: PC-3 cells, Gal-4 = 1; for W741L-AR CDX, peptide-AR interaction in MM2H assay: CDX = 10 µM
T2 construct: expressed in transfected cells; host or cells: PC-3
T2 sequence (P10275 1-920 W742L): T1 sequence (P10275 1-920) with W742L
Source text: as §1, §2

Substance: #3-18: positive control peptide NTNA-FSRLF-YPS (NTNAFSRLFYPS; also: fused to Gal4 DNA-binding domain, end not given here) [reference compound]
- wt-AR DHT, peptide-AR interaction in MM2H assay [1]: 590
- wt-AR Ethanol, peptide-AR interaction in MM2H assay [1]: 10
- W741L-AR CDX, peptide-AR interaction in MM2H assay [2]: 128
- W741L-AR Ethanol, peptide-AR interaction in MM2H assay [2]: 9

Substance: C1-FY: phage display screened peptide SYT-FNQFY-YSTA (SYTFNQFYYSTA; also: fused to Gal4 DNA-binding domain, end not given here)
- wt-AR DHT, peptide-AR interaction in MM2H assay [1]: 680
- wt-AR Ethanol, peptide-AR interaction in MM2H assay [1]: 19
- W741L-AR CDX, peptide-AR interaction in MM2H assay [2]: 511
- W741L-AR Ethanol, peptide-AR interaction in MM2H assay [2]: 8

Substance: C4-FY: phage display screened peptide SPL-FSSFY-HART (SPLFSSFYHART; also: fused to Gal4 DNA-binding domain, end not given here)
- wt-AR DHT, peptide-AR interaction in MM2H assay [1]: 340
- wt-AR Ethanol, peptide-AR interaction in MM2H assay [1]: 4
- W741L-AR CDX, peptide-AR interaction in MM2H assay [2]: 114
- W741L-AR Ethanol, peptide-AR interaction in MM2H assay [2]: 1

Substance: C8-FY: phage display screened peptide GD-FKSFY-LATTW (GDFKSFYLATTW; also: fused to Gal4 DNA-binding domain, end not given here)
- wt-AR DHT, peptide-AR interaction in MM2H assay [1]: 484
- wt-AR Ethanol, peptide-AR interaction in MM2H assay [1]: 17
- W741L-AR CDX, peptide-AR interaction in MM2H assay [2]: 86
- W741L-AR Ethanol, peptide-AR interaction in MM2H assay [2]: 2

Substance: C315-FY: phage display screened peptide APSLNR-FATFY-H (APSLNRFATFYH; also: fused to Gal4 DNA-binding domain, end not given here)
- wt-AR DHT, peptide-AR interaction in MM2H assay [1]: 6
- wt-AR Ethanol, peptide-AR interaction in MM2H assay [1]: 1
- W741L-AR CDX, peptide-AR interaction in MM2H assay [2]: 2
- W741L-AR Ethanol, peptide-AR interaction in MM2H assay [2]: 1

Substance: C411-FY: phage display screened peptide NDTPVK-FAHFY-H (NDTPVKFAHFYH; also: fused to Gal4 DNA-binding domain, end not given here)
- wt-AR DHT, peptide-AR interaction in MM2H assay [1]: 3
- wt-AR Ethanol, peptide-AR interaction in MM2H assay [1]: 7
- W741L-AR CDX, peptide-AR interaction in MM2H assay [2]: 3
- W741L-AR Ethanol, peptide-AR interaction in MM2H assay [2]: 2

Substance: C412-FY: phage display screened peptide APSDTY-FQRFY-R (APSDTYFQRFYR; also: fused to Gal4 DNA-binding domain, end not given here)
- wt-AR DHT, peptide-AR interaction in MM2H assay [1]: 6
- wt-AR Ethanol, peptide-AR interaction in MM2H assay [1]: 12
- W741L-AR CDX, peptide-AR interaction in MM2H assay [2]: 2
- W741L-AR Ethanol, peptide-AR interaction in MM2H assay [2]: 1

Substance: C414-FY: phage display screened peptide NPSSM-FEKFY-LR (NPSSMFEKFYLR; also: fused to Gal4 DNA-binding domain, end not given here)
- wt-AR DHT, peptide-AR interaction in MM2H assay [1]: 2,653
- wt-AR Ethanol, peptide-AR interaction in MM2H assay [1]: 10
- W741L-AR CDX, peptide-AR interaction in MM2H assay [2]: 532
- W741L-AR Ethanol, peptide-AR interaction in MM2H assay [2]: 2

Substance: CA9-FY: phage display screened peptide SL-FTSFY-TGSGS (SLFTSFYTGSGS; also: fused to Gal4 DNA-binding domain, end not given here)
- wt-AR DHT, peptide-AR interaction in MM2H assay [1]: 1,517
- wt-AR Ethanol, peptide-AR interaction in MM2H assay [1]: 20
- W741L-AR CDX, peptide-AR interaction in MM2H assay [2]: 190
- W741L-AR Ethanol, peptide-AR interaction in MM2H assay [2]: 5

Substance: CA-10-FY: phage display screened peptide EHSM-FHSFY-VQG (EHSMFHSFYVQG; also: fused to Gal4 DNA-binding domain, end not given here)
- wt-AR DHT, peptide-AR interaction in MM2H assay [1]: 277
- wt-AR Ethanol, peptide-AR interaction in MM2H assay [1]: 12
- W741L-AR CDX, peptide-AR interaction in MM2H assay [2]: 14
- W741L-AR Ethanol, peptide-AR interaction in MM2H assay [2]: 4

Substance: CON-1: negative control peptide MYKP-HNHHQ-TSS (MYKPHNHHQTSS; also: fused to Gal4 DNA-binding domain (not in chain)) [reference compound]
- wt-AR DHT, peptide-AR interaction in MM2H assay [1]: 1
- wt-AR Ethanol, peptide-AR interaction in MM2H assay [1]: 1
- W741L-AR CDX, peptide-AR interaction in MM2H assay [2]: 1
- W741L-AR Ethanol, peptide-AR interaction in MM2H assay [2]: 1

Substance: RIP-p: short peptide of novel AR coregulator candidate RIPK1, GIEEK-FRPFY-LSQLE (GIEEKFRPFYLSQLE; also: fused to Gal4 DNA-binding domain (not in chain))
- wt-AR DHT, peptide-AR interaction in MM2H assay [1]: 159
- wt-AR Ethanol, peptide-AR interaction in MM2H assay [1]: 2
- W741L-AR CDX, peptide-AR interaction in MM2H assay [2]: 554
- W741L-AR Ethanol, peptide-AR interaction in MM2H assay [2]: 12
